± gives the standard deviation.
Assay: collision cross section of modified peptide (TIMS, N2, iRT-aligned); higher = larger / more extended gas-phase ion
Summary of the method: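 Collision cross section was derived from the Mason-Schamp equation. Each value averages 1–3 technical replicates of the most abundant feature per charge state, measured on a timsTOF Pro/HT in dda-PASEF mode (nitrogen, ~2.4 mbar) after a 120-min nanoflow C18 gradient at 60 °C. Synthetic peptide pools (~100 fmol/µL in 2% acetonitrile/0.1% formic acid, iRT standard spiked 1:40) were identified with MaxQuant, and 1/K0 was calibrated with three reference ions and aligned run-wise to the median iRT peptide deviation.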

[1] = charge state: 2, modification: Butyryl
[2] = charge state: 2, modification: Dimethyl (K)
[3] = charge state: 3, modification: Dimethyl (K)
[4] = charge state: 2, modification: Acetyl (K)
[5] = charge state: 3, modification: Acetyl (K)
[6] = charge state: 2, modification: GlyGly (K)
[7] = charge state: 3, modification: GlyGly (K)
[8] = charge state: 3, modification: HexNAc (ST)
[9] = charge state: 2, modification: Succinyl
[10] = charge state: 2, modification: Malonyl
[11] = charge state: 2, modification: hydroxyisobutyryl
[12] = charge state: 3, modification: hydroxyisobutyryl
[13] = charge state: 2, modification: Citrullination (R)
[14] = charge state: 3, modification: Citrullination (R)
[15] = charge state: 2, modification: Nitro (Y)
[16] = charge state: 3, modification: Nitro (Y)
[17] = charge state: 2, modification: Methyl (K)
[18] = charge state: 3, modification: Methyl (K)
[19] = charge state: 3, modification: Methyl (R)
[20] = charge state: 2, modification: Phospho (Y)
[21] = charge state: 2, modification: Glutarylation
[22] = charge state: 3, modification: Glutarylation
[23] = charge state: 2, modification: Formyl

## SITHSTVGSKGEK [_SITHSTVGSK(Butyryl)GEK_]
[1]
  collision cross section: 396.1 ± 0.79 Å²
Charge state: 3, modification: Butyryl
  collision cross section: 440.88 ± 2.8 Å²

## LLFSNTAAQKLR [_LLFSNTAAQK(Dimethyl (K))LR_]
[2]
  collision cross section: 419.08 ± 0.75 Å²
[3]
  collision cross section: 473.77 ± 2.6 Å²

## SLGEPAAGEGSAKR [_SLGEPAAGEGSAK(Acetyl (K))R_]
[4]
  collision cross section: 382.38 ± 0.43 Å²
[5]
  collision cross section: 484.93 ± 0.63 Å²

## FDDTNPEKEEAK [_FDDTNPEK(GlyGly (K))EEAK_]
[6]
  collision cross section: 402.92 ± 5.6 Å²
[7]
  collision cross section: 486.07 ± 0.34 Å²

## GEVQVSDKER [_GEVQVSDK(Propionyl)ER_]
Charge state: 2, modification: Propionyl
  collision cross section: 360.54 ± 0.33 Å²

## IHVQSSSDSSDEPAEKR [_IHVQSSSDSSDEPAEK(Biotin)R_]
Charge state: 3, modification: Biotin
  collision cross section: 513.52 Å²

## SAGSVESPSVSSTHR [_SAGSVESPSVSST(HexNAc (ST))HR_]
[8]
  collision cross section: 473.17 ± 1.2 Å²

## DAIHFYNKSLAEHR [_DAIHFYNK(Malonyl)SLAEHR_]
Charge state: 3, modification: Malonyl
  collision cross section: 505.96 ± 0.89 Å²

## VETTVTSLKTK [_VETTVTSLK(Succinyl)TK_]
[9]
  collision cross section: 381.14 ± 3.4 Å²
Charge state: 3, modification: Succinyl
  collision cross section: 451.06 Å²

## DTGEKLTVAENEAETK [_DTGEK(Dimethyl (K))LTVAENEAETK_]
[2]
  collision cross section: 442.93 ± 0.72 Å²
[3]
  collision cross section: 481.58 ± 2.1 Å²

## LQDVSGQLSSSKK [_LQDVSGQLSSSK(Malonyl)K_]
[10]
  collision cross section: 397.79 ± 0.61 Å²

## GSLGAQKLANTCFNEIEK [_GSLGAQK(Butyryl)LANTCFNEIEK_]
[1]
  collision cross section: 475.25 ± 0.74 Å²

## SGKFTQQDIDEAK [_SGK(Malonyl)FTQQDIDEAK_]
[10]
  collision cross section: 410.91 ± 0.58 Å²

## SEASSEFAKK [_SEASSEFAK(Malonyl)K_]
[10]
  collision cross section: 350.91 ± 0.74 Å²

## VQGGALEDSQLVAGVAFKK [_VQGGALEDSQLVAGVAFK(hydroxyisobutyryl)K_]
[11]
  collision cross section: 481.48 Å²
[12]
  collision cross section: 565.17 ± 3.4 Å²

## PGGLGSSSLYGLGASRPR [_PGGLGSSSLYGLGASR(Citrullination (R))PR_]
[13]
  collision cross section: 438.36 ± 0.2 Å²
[14]
  collision cross section: 521.04 ± 1.9 Å²

## LTEKELAEAASK [_LTEK(Biotin)ELAEAASK_]
Charge state: 2, modification: Biotin
  collision cross section: 418.47 ± 3 Å²

## VVPGYGHAVLR [_VVPGY(Nitro (Y))GHAVLR_]
[15]
  collision cross section: 383.51 ± 0.17 Å²
[16]
  collision cross section: 449.51 ± 1.1 Å²

## GTVPDDAVEALADSLGKK [_GTVPDDAVEALADSLGK(Acetyl (K))K_]
[4]
  collision cross section: 449.76 ± 3.1 Å²
[5]
  collision cross section: 527.69 ± 0.69 Å²

## DYSAPVNFISAGLKK [_DYSAPVNFISAGLK(Methyl (K))K_]
[17]
  collision cross section: 451.15 ± 3.1 Å²
[18]
  collision cross section: 513.65 ± 3.5 Å²

## GATVTRGVPPPPTVR [_GATVTR(Methyl (R))GVPPPPTVR_]
[19]
  collision cross section: 512.38 ± 1.6 Å²

## LEEVTGKLQVAR [_LEEVTGK(Crotonyl)LQVAR_]
Charge state: 2, modification: Crotonyl
  collision cross section: 398.71 ± 0.79 Å²

## SEASSEFAKK [_SEASSEFAK(Methyl (K))K_]
[17]
  collision cross section: 357.88 ± 2.5 Å²
[18]
  collision cross section: 426.48 ± 2.6 Å²

## IGNSYFKEEK [_IGNSYFK(hydroxyisobutyryl)EEK_]
[11]
  collision cross section: 380.01 ± 0.8 Å²

## SPSDSGYSYETIGKTTK [_SPSDSGYSYETIGK(GlyGly (K))TTK_]
[6]
  collision cross section: 483.23 ± 1.5 Å²
[7]
  collision cross section: 532.2 ± 3.5 Å²

## HLRGHGPQPPLR [_HLR(Methyl (R))GHGPQPPLR_]
[19]
  collision cross section: 492.6 ± 2.1 Å²

## TTGFYSGFSEVAEKR [_TTGFYSGFSEVAEK(GlyGly (K))R_]
[6]
  collision cross section: 463.26 ± 1.6 Å²
[7]
  collision cross section: 525.41 ± 1.1 Å²

## LEKTIDDLEEK [_LEK(Dimethyl (K))TIDDLEEK_]
[2]
  collision cross section: 401.15 ± 1.1 Å²
[3]
  collision cross section: 461.19 ± 2.1 Å²

## FSAYIKNSNPALNDNLEK [_FSAYIK(GlyGly (K))NSNPALNDNLEK_]
[6]
  collision cross section: 506.19 ± 1.5 Å²
[7]
  collision cross section: 530.18 ± 11 Å²

## ANEKTESSSAQQVAVSR [_ANEK(Dimethyl (K))TESSSAQQVAVSR_]
[3]
  collision cross section: 490.79 ± 1.6 Å²

## LEKTIDDLEEK [_LEK(Methyl (K))TIDDLEEK_]
[17]
  collision cross section: 405.66 ± 1.3 Å²
[18]
  collision cross section: 473.34 ± 3.6 Å²

## YTCSFCGK [_Y(Phospho (Y))TCSFCGK_]
[20]
  collision cross section: 336.46 ± 0.067 Å²

## PRTPTAPAVNLAGAR [_PR(Citrullination (R))TPTAPAVNLAGAR_]
[13]
  collision cross section: 411.43 ± 0.98 Å²
[14]
  collision cross section: 471.47 ± 0.76 Å²

## AGPNASIISLKSDK [_AGPNASIISLK(Dimethyl (K))SDK_]
[2]
  collision cross section: 413.93 ± 1.1 Å²
[3]
  collision cross section: 484.65 ± 1.6 Å²

## LLIVSTTPYSEKDTK [_LLIVSTTPYSEK(Gluratylation)DTK_]
[21]
  collision cross section: 462.31 ± 1.5 Å²
[22]
  collision cross section: 493.7 ± 1.3 Å²

## SLFFGGKGAPLQR [_SLFFGGK(Succinyl)GAPLQR_]
[9]
  collision cross section: 401.28 ± 0.38 Å²

## SLFFGGKGAPLQR [_SLFFGGK(Formyl)GAPLQR_]
[23]
  collision cross section: 399.67 ± 0.55 Å²

## VYSGHQGR [_VY(Nitro (Y))SGHQGR_]
[15]
  collision cross section: 327.94 ± 0.59 Å²
[16]
  collision cross section: 418.62 ± 1.2 Å²

## VPTTEKPTVTVNFR [_VPTTEK(Trimethyl (K))PTVTVNFR_]
Charge state: 3, modification: Trimethyl (K)
  collision cross section: 499.21 ± 1.6 Å²

## VNVEAPDVNLEGLGGKLK [_VNVEAPDVNLEGLGGK(Formyl)LK_]
[23]
  collision cross section: 459.19 ± 1.2 Å²

## VGEFSGANKEK [_VGEFSGANK(Butyryl)EK_]
[1]
  collision cross section: 369.78 ± 1.3 Å²

## GETASKLQSEISR [_GETASK(GlyGly (K))LQSEISR_]
[6]
  collision cross section: 415.57 ± 0.85 Å²
[7]
  collision cross section: 455.84 ± 1.3 Å²

## LEKTIDDLEEK [_LEK(Gluratylation)TIDDLEEK_]
[21]
  collision cross section: 410.17 ± 1.1 Å²

## ASNAAVKLAESK [_ASNAAVK(Formyl)LAESK_]
[23]
  collision cross section: 365.07 ± 0.39 Å²

## IGSLDNITHVPGGGNK [_IGS(HexNAc (ST))LDNITHVPGGGNK_]
[8]
  collision cross section: 493.45 ± 0.96 Å²

## SDSGKPYYYNSQTK [_SDSGK(Formyl)PYYYNSQTK_]
[23]
  collision cross section: 417.77 ± 0.18 Å²

## GPQNATDSYVHK [_GPQNATDSY(Phospho (Y))VHK_]
[20]
  collision cross section: 396.29 ± 0.77 Å²
Charge state: 3, modification: Phospho (Y)
  collision cross section: 452.94 ± 1.8 Å²

## PARGLYSR [_PAR(Methyl (R))GLYSR_]
Charge state: 2, modification: Methyl (R)
  collision cross section: 338.81 ± 0.66 Å²
[19]
  collision cross section: 407.19 Å²

## TVSKVDDFLANEAK [_TVSK(Succinyl)VDDFLANEAK_]
[9]
  collision cross section: 425.01 ± 0.52 Å²

## VPGALAAAKAAK [_VP(Hydroxyproline)GALAAAKAAK_]
Charge state: 2, modification: Hydroxyproline
  collision cross section: 368.8 ± 0.56 Å²
Charge state: 3, modification: Hydroxyproline
  collision cross section: 444.57 ± 2.8 Å²

## VGEFSGANKEK [_VGEFSGANK(hydroxyisobutyryl)EK_]
[11]
  collision cross section: 364.17 ± 0.9 Å²
[12]
  collision cross section: 444.77 Å²

## AGQKLIDVNHYAK [_AGQK(GlyGly (K))LIDVNHYAK_]
[6]
  collision cross section: 433.04 ± 1.4 Å²
[7]
  collision cross section: 485.98 ± 1.6 Å²

## DASTLQSQKAEGTGDAK [_DASTLQSQK(Gluratylation)AEGTGDAK_]
[21]
  collision cross section: 440.54 ± 1.5 Å²
[22]
  collision cross section: 515.28 ± 0.85 Å²

## LLEQKTQESQK [_LLEQK(hydroxyisobutyryl)TQESQK_]
[11]
  collision cross section: 401.39 ± 0.81 Å²

## LLFSNTAAQKLR [_LLFSNTAAQK(hydroxyisobutyryl)LR_]
[11]
  collision cross section: 408.17 ± 0.55 Å²
[12]
  collision cross section: 486.85 ± 1.9 Å²
